Data reported in publication PMC8481289, “Structural basis for UFM1 transfer from UBA5 to UFC1” (Nature Communications, 2021).
Blank lines part the entries; values can stand above or below the binder they belong to.

B1: UFC1 (WT) (enzyme, human)
chain: MADEATRRVVSEIPVLKTNAGPRDRELWVQRLKEEYQSLIRYVENNKNADNDWFRLESNKEGTRWFGKCWYIHDLLKYEFDIEFDIPITYPTTAPEIAVPELDGKTAKMYRGGKICLTDHFKPLWARNVPKFGLAHLMALGLGPWLAVEIPDLIQKGVIQHKEKCNQ
notes: UFC1, the E2 of UFM1; active site C116; 15N-labelled (M9 medium with 15NH4Cl) for the NMR titrations; In the two crystal structures UFC1 stood as part of a fusion chain; also called E2

Legend:
Details in all cases: both partners purified
[1] = biological target: T1, UBA5 Y372A (human, UniProt Q9GZZ9 1-404, Y372A); test: ITC; UFC1 titrated into the UBA5 construct (heat per mole of UFC1); MicroCal PEAQ ITC, 25 °C; 20 mM Tris pH 7.5, 50 mM NaCl, 2 mM DTT; 19 injections of 2 μl; fitted to the two sets of sites model
T1 construct: UBA5, human, point mutant in the linker between UIS and UBS

[2] = biological target: T2, UBA5 WT (human, UniProt Q9GZZ9 1-404); test: cross-linking; disulfide trapping: DPDS-activated UFC1-NC (4 μM) mixed with 2 μM UBA5 (WT or mutants) in PBS, 25 °C, 20 min; non-reducing SDS-PAGE, Coomassie
T2 construct: UBA5, human; active site C250; also called E1

[3] = biological target: T3, UBA5 double mutant C250A and A371C (human, UniProt Q9GZZ9 1-404, C250A | A371C); test: as above
T3 construct: UBA5, human, active site Cys removed and a Cys placed in the linker

[4] = biological target: B1; test: ITC; UFC1 titrated into the UBA5 construct (heat per mole of UFC1); MicroCal PEAQ ITC, 25 °C; 20 mM Tris pH 7.5, 50 mM NaCl, 2 mM DTT; 19 injections of 2 μl; fitted to the two sets of sites model
[5] = biological target: B1; test: crystal structure; UBA5(347-404) fused to the N-terminus of UFC1; 2.65 Å; the UBS binds the UFC1 of a molecule of another asymmetric unit; 2% tacsimate pH 7.0, 20% PEG 3350, 0.1 M HEPES pH 7.5, 6 mM zinc sulfate, 20 °C
[6] = biological target: B1; test: crystal structure; UBA5(389-404) fused to the C-terminus of UFC1; 2.4 Å; the UBS binds the UFC1 of a fusion molecule of another asymmetric unit; 35 mM citric acid, 65 mM bis-tris propane, 19% PEG3350, 100 mM LiCl, 20 °C

Binder: B1
binding result [1]: binds

B3: UBA5(Δ349-389) (enzyme, human)
chain: MAESVERLQQRVQELERELAQERSLQVPRSGDGGGGRVRIEKMSSEVVDSNPYSRLMALKRMGIVSDYEKIRTFAVAIVGVGGVGSVTAEMLTRCGIGKLLLFDYDKVELANMNRLFFQPHQAGLSKVQAAEHTLRNINPDVLFEVHNYNITTVENFQHFMDRISNGGLEEGKPVDLVLSCVDNFEARMTINTACNELGQTWMESGVSENAVSGHIQLIIPGESACFACAPPLVVAANIDEKTLKREGVCAASLPTTMGVVAGILVQNVLKFLLNFGTVSFYLGYNAMQDFFPTMSMKPNPQCDDRNCRKQQEEYKKKVAALPKQEVIQEEEEIIHEDNEWGIELVSEGSGSGESLEDLMAKMKNM
notes: UBA5, human, up to residue 348; UBA5, human, from residue 390 to the C-terminus (holds the UBS); Linker between UIS and UBS removed, UBS kept
Kd [4]: 5.5 µM

B4: UBA5(347–404) (domain or fragment, human, UniProt Q9GZZ9 347-404, looked up)
chain: SEVSEEELKNFSGPVPDLPEGITVAYTIPKKQEDSVTELTVEDSGESLEDLMAKMKNM
notes: In the crystal structure 7NVK the same stretch stood fused to the N-terminus of UFC1
binding result [5]: binds

The next lines start with the values.

binding result [2]: binds
binding result [3]: binds
B2: UFC1-NC (enzyme, human)
chain: MADEATRRVVSEIPVLKTNAGPRDRELWVQRLKEEYQSLIRYVENNKNADNDWFRLESNKEGTRWFGKSWYIHDLLKYEFDIEFDIPITYPTTAPEIAVPELDGKTAKMYRGGKICLTDHFKPLWARNVPKFGLAHLMALGLGPWLAVEIPDLIQKGVIQHKEKSNQ
modifications: activated with the crosslinker 2,2' dithiodipyridyldisulfide (DPDS); only the active site C116 is left
notes: UFC1 with C69 and C165 mutated to serine, leaving only the active site C116

binding result [6]: binds
B5: UBA5 (389-404) (domain or fragment, human, UniProt Q9GZZ9 389-404, looked up)
chain: DSGESLEDLMAKMKNM
notes: UBA5, human, residues 389-404 (holds the UBS); Never stood alone: it was fused to the C-terminus of UFC1 for the crystal structure; also called UBS; source: E. coli T7 express, purified, as part of the fusion UFC1-UBA5(389-404)
